The source of these data is US20190041402A1 (GOVERNING COUNCIL OF THE UNIVERSITY OF TORONTO, published 2019).

Test [1] deals with T1, human FGFR1c ligand-binding domain (human, UniProt P11362 142-365).
T1 construct: range 142-365; also called FGFR1c alone
T1 sequence (looked up): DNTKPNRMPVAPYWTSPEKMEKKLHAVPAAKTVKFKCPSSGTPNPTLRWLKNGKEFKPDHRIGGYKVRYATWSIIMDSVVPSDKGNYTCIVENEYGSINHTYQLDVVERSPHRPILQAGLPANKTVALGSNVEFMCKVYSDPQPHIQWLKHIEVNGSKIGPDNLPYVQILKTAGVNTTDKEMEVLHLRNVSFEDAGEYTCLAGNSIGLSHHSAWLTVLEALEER
Put plainly: Fab-phage ELISA, immobilised antigen.

For test [2], the target named is T2, extracellular domain (ECD) of human αKlotho, amino acids E34-S981 with C-terminal 6-His tag (R&D Systems … (human, UniProt Q9UEF7 34-981)).
T2 construct: range 34-981; also called αKlotho (aa34-981); target antigen
T2 sequence: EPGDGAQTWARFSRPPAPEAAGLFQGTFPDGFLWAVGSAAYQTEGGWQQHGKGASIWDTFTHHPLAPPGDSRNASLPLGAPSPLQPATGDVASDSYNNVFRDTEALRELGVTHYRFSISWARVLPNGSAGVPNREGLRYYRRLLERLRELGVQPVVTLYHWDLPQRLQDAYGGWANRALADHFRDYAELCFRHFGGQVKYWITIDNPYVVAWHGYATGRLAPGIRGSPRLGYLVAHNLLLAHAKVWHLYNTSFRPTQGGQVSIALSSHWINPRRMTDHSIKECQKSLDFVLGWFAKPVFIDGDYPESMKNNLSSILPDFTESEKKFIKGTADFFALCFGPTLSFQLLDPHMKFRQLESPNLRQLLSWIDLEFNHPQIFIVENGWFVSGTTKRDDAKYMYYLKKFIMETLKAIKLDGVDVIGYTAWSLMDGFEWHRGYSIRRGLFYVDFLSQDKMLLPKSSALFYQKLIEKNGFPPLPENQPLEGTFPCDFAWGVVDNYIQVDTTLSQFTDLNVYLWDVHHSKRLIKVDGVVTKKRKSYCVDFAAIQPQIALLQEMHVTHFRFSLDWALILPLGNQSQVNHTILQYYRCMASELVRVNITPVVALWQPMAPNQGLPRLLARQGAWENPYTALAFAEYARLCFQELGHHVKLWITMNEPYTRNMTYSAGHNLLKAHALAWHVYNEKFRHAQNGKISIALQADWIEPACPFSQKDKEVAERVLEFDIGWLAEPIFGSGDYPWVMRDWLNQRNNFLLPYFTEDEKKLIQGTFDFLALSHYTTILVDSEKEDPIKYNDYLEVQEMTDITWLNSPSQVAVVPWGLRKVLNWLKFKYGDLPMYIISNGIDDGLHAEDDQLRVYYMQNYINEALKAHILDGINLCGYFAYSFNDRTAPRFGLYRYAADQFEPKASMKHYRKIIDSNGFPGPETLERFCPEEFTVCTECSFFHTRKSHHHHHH
Put plainly: SPR, Fab captured by anti-H+L antibody, αKlotho injected. As for the experimental part: Affinity estimates for each of the antibodies were determined by surface plasmon resonance (SPR). Fabs were immobilized using an anti-H+L antibody and serial dilutions of αKlotho were injected.

The next test concerns the target T3, neutravidin (UniProt P02701 25-152).
T3 construct: also called NA; NAV
Put plainly: Fab ELISA, Fab 5 ug/ml on immobilised antigen, anti-Flag-HRP, A450. Here is the method:
(§1) Fab ELISA using both human and mouse αKlotho was carried out for assessing cross-reactivity to human and mouse αKlotho (FIG. 16). Fabs (5 ug/ml) were incubated with immobilized αKlotho human, mouse, or neutravidin (NA) and SBA as negative controls. After washing off unbound Fab, bound Fab were detected using an HRP-conjugated anti-Flag antibody (Fabs have Falg tag on the end of their light chains). Colorimetric HRP reagents allow for absorbance readings at 450 nm.

For the next test, the target named is T4, bovine serum albumin (bovine, UniProt P02769 25-607).
T4 construct: also called BSA
T4 sequence (P02769 25-607 limits assumed): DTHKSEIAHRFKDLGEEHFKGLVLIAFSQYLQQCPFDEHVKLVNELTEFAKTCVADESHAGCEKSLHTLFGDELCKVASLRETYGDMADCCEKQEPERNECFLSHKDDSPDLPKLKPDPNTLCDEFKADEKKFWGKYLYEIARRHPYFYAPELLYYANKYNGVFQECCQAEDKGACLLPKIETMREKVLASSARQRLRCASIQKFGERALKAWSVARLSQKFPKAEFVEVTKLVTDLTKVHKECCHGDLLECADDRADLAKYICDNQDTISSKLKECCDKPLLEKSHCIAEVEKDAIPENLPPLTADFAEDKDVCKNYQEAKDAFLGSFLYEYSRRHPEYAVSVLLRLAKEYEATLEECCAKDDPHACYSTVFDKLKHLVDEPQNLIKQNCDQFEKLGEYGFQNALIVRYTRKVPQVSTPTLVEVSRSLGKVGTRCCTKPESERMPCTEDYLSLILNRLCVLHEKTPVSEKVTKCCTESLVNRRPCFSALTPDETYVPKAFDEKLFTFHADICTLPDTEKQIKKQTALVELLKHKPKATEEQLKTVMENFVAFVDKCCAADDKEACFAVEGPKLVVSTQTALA
Described as above. As for the experimental part: as §1

Test [3] has as its target T5, soluble human αKlotho (recombinant) (human, UniProt Q9UEF7 34-981).
T5 construct: also called Hu aKL; recombinant human αKlotho
T5 sequence (looked up): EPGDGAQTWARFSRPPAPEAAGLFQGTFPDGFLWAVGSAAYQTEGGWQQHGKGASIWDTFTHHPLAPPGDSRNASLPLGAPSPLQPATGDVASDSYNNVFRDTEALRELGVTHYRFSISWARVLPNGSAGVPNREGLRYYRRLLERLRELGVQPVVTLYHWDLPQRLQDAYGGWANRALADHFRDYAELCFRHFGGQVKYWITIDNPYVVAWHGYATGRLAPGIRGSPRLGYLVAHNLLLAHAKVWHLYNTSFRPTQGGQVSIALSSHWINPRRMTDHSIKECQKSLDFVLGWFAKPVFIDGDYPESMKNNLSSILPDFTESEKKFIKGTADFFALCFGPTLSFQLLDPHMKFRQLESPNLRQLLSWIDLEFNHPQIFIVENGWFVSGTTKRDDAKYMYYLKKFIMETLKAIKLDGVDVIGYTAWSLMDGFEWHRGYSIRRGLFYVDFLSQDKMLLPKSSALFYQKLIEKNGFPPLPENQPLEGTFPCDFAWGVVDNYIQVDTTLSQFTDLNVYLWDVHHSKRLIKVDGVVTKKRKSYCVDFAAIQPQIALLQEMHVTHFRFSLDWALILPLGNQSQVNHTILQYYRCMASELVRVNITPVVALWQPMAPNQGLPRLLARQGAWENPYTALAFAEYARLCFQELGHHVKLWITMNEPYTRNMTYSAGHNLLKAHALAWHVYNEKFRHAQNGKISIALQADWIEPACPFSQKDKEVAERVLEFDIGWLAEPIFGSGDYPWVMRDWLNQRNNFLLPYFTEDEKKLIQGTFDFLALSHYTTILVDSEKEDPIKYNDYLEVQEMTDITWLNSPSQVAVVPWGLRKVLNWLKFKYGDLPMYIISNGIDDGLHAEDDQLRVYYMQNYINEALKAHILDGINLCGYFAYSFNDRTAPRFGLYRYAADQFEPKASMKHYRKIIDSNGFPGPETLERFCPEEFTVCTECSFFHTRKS
Description: SPR (ProteOn XPR36), Fab captured by anti-IgG(H+L), human αKlotho injected in serial dilutions, Langmuir fit. Here is the method:
Estimated affinities against human and mouse antigen for select αKlotho Fabs were obtained by surface plasmon resonance on a ProteOn XPR36 (FIG. 17). Fabs were captured using an anti-IgG(H+L) antibody and serial dilutions of αKlotho were injected. Binding curves were fitted to the Langmuir model. (A) Determined Kon, Koff and KD values. (B) and (C) Binding curves for human and mouse antigen respectively.

T3 sequence (P02701 25-152): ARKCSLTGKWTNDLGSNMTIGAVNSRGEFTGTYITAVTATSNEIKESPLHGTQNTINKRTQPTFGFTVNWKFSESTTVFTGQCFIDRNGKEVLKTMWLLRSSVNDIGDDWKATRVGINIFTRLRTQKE

B1: sb106 Fab (Fab, V domains shown)
VH: EVQLVESGGGLVQPGGSLRLSCAASGFNISYYSIHWVRQAPGKGLEWVAYISPSYGYTSYADSVKGRFTISADTSKNTAYLQMNSLRAEDTAVYYCARYYVYASHGWAGYGMDYWGQGTLVTVSS
VL: DIQMTQSPSSLSASVGDRVTITCRASQSVSSAVAWYQQKPGKAPKLLIYSASSLYSGVPSRFSGSRSGTDFTLTISSLQPEDFATYYCQQAGYSPITFGQGTKVEIKR
notes: also called Fsb106; clone 48
In the case of B1, the figures for the binding result (in test [1]; in the test with neutravidin; with bovine serum albumin) were “no binding”, “no binding (tested: 5 ug/ml)” and “no binding (tested: 5 ug/ml)”, respectively. Also, the values for the equilibrium dissociation constant (Kd) in test [2] and in test [3] were 1.9 nM and 1.02 nM, respectively. The koff in test [3] was found to be 0.000315 s⁻¹. The association rate constant (kon) in test [3] was found to be 308000 M⁻¹ s⁻¹.
